Test results reported in the supplement of paper PMC9112550, “Optimization of the antimicrobial peptide Bac7 by deep mutational scanning” (BMC Biology, 2022).

System: Escherichia coli TOP10
Experiment: shrunken log2 fold change of peptide-encoding DNA abundance (4.5 h post-induction vs induction); higher = less antimicrobial activity (less host growth inhibition)
Conditions: time post-induction: 4.5 h; library: site-saturation at positions 5, 18, 19, 20
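Also: peptides expressed intracellularly from a pBAD plasmid library in pooled LB shake-flask culture, induced with 0.3% L-arabinose, DNA abundance read by NGS, three biological replicates, DESeq2 with apeglm shrinkage.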

RRIRKRPPRLPRPRPRPARIPRP
shrunken log2 fold change: 0.0491

RRIRRRPPRLPRPRPRPYNPPRP
shrunken log2 fold change: -0.348

RRIRFRPPRLPRPRPRPAECPRP
shrunken log2 fold change: -0.16

RRIRYRPPRLPRPRPRPSSKPRP
shrunken log2 fold change: -1

RRIRKRPPRLPRPRPRPGDSPRP
shrunken log2 fold change: 0.163

RRIRHRPPRLPRPRPRPDEWPRP
shrunken log2 fold change: -0.000921

RRIRHRPPRLPRPRPRPYLEPRP
shrunken log2 fold change: -0.0394

RRIRGRPPRLPRPRPRPDQMPRP
shrunken log2 fold change: 0.633

RRIRVRPPRLPRPRPRPVNSPRP
shrunken log2 fold change: -0.184

RRIRKRPPRLPRPRPRPTFYPRP
shrunken log2 fold change: 0.11

RRIRFRPPRLPRPRPRPEIMPRP
shrunken log2 fold change: -0.269

RRIRFRPPRLPRPRPRPQYWPRP
shrunken log2 fold change: -0.462

RRIRDRPPRLPRPRPRPGYLPRP
shrunken log2 fold change: -0.394

RRIRIRPPRLPRPRPRPMFLPRP
shrunken log2 fold change: -0.624

RRIRFRPPRLPRPRPRPHHTPRP
shrunken log2 fold change: -0.597

RRIRFRPPRLPRPRPRPIVWPRP
shrunken log2 fold change: 0.0539

RRIRDRPPRLPRPRPRPMRIPRP
shrunken log2 fold change: -0.0494

RRIRERPPRLPRPRPRPPTIPRP
shrunken log2 fold change: -0.0452

RRIRIRPPRLPRPRPRPSDMPRP
shrunken log2 fold change: -0.309

RRIRDRPPRLPRPRPRPNCHPRP
shrunken log2 fold change: -0.23

RRIRSRPPRLPRPRPRPYESPRP
shrunken log2 fold change: -0.26

RRIRVRPPRLPRPRPRPQCPPRP
shrunken log2 fold change: -0.0117

RRIRHRPPRLPRPRPRPLRAPRP
shrunken log2 fold change: 0.513

RRIRSRPPRLPRPRPRPHYKPRP
shrunken log2 fold change: -0.891

RRIRFRPPRLPRPRPRPTRGPRP
shrunken log2 fold change: 0.54

RRIRERPPRLPRPRPRPPFPPRP
shrunken log2 fold change: 0.018

RRIRHRPPRLPRPRPRPPQDPRP
shrunken log2 fold change: 0.0355

RRIRIRPPRLPRPRPRPYFHPRP
shrunken log2 fold change: -0.835

RRIRSRPPRLPRPRPRPHGRPRP
shrunken log2 fold change: -0.0222

RRIRGRPPRLPRPRPRPKDKPRP
shrunken log2 fold change: 0.558

RRIRLRPPRLPRPRPRPPRTPRP
shrunken log2 fold change: 0.591

RRIRVRPPRLPRPRPRPKDEPRP
shrunken log2 fold change: -0.205

RRIRLRPPRLPRPRPRPFYQPRP
shrunken log2 fold change: -0.161

RRIRLRPPRLPRPRPRPFNGPRP
shrunken log2 fold change: -0.0434

RRIRKRPPRLPRPRPRPPLWPRP
shrunken log2 fold change: 0.931

RRIRCRPPRLPRPRPRPMMCPRP
shrunken log2 fold change: 0.0512

RRIRFRPPRLPRPRPRPKRQPRP
shrunken log2 fold change: 0.401

RRIRIRPPRLPRPRPRPAAYPRP
shrunken log2 fold change: -0.919

RRIRIRPPRLPRPRPRPNQCPRP
shrunken log2 fold change: -0.465

RRIRKRPPRLPRPRPRPFHQPRP
shrunken log2 fold change: -0.0483

RRIRVRPPRLPRPRPRPWQGPRP
shrunken log2 fold change: 0.0284

RRIRFRPPRLPRPRPRPVSKPRP
shrunken log2 fold change: -0.358

RRIRHRPPRLPRPRPRPRNTPRP
shrunken log2 fold change: -0.229

RRIRYRPPRLPRPRPRPKTDPRP
shrunken log2 fold change: -0.863

RRIRKRPPRLPRPRPRPWLPPRP
shrunken log2 fold change: 0.0665

RRIRKRPPRLPRPRPRPEAFPRP
shrunken log2 fold change: 0.434

RRIRVRPPRLPRPRPRPSYCPRP
shrunken log2 fold change: -0.18

RRIRIRPPRLPRPRPRPRWVPRP
shrunken log2 fold change: 0.171

RRIRDRPPRLPRPRPRPTFLPRP
shrunken log2 fold change: 0.196

RRIRQRPPRLPRPRPRPFYFPRP
shrunken log2 fold change: -0.697

RRIRHRPPRLPRPRPRPITQPRP
shrunken log2 fold change: -0.0204

RRIRARPPRLPRPRPRPWCIPRP
shrunken log2 fold change: -0.319

RRIRHRPPRLPRPRPRPDGHPRP
shrunken log2 fold change: -0.0262

RRIRGRPPRLPRPRPRPFYAPRP
shrunken log2 fold change: 0.0161

RRIRERPPRLPRPRPRPQDMPRP
shrunken log2 fold change: -0.492

RRIRCRPPRLPRPRPRPSYVPRP
shrunken log2 fold change: -0.786

RRIRMRPPRLPRPRPRPYRHPRP
shrunken log2 fold change: 0.0311

RRIRIRPPRLPRPRPRPNACPRP
shrunken log2 fold change: 0.00304

RRIRKRPPRLPRPRPRPIFNPRP
shrunken log2 fold change: -0.0554

RRIRKRPPRLPRPRPRPRFKPRP
shrunken log2 fold change: 0.52

RRIRVRPPRLPRPRPRPTKMPRP
shrunken log2 fold change: 0.0488

RRIRVRPPRLPRPRPRPHCTPRP
shrunken log2 fold change: -1.21

RRIRGRPPRLPRPRPRPRPAPRP
shrunken log2 fold change: 1.07

RRIRGRPPRLPRPRPRPMTDPRP
shrunken log2 fold change: 0.603

RRIRQRPPRLPRPRPRPYFPPRP
shrunken log2 fold change: -0.283

RRIRIRPPRLPRPRPRPSPPPRP
shrunken log2 fold change: -0.214

RRIRQRPPRLPRPRPRPKAEPRP
shrunken log2 fold change: 0.45

RRIRVRPPRLPRPRPRPDKCPRP
shrunken log2 fold change: -0.0495

RRIRERPPRLPRPRPRPTNQPRP
shrunken log2 fold change: -0.414

RRIRQRPPRLPRPRPRPMMFPRP
shrunken log2 fold change: -0.3

RRIRFRPPRLPRPRPRPTWQPRP
shrunken log2 fold change: 0.145

RRIRLRPPRLPRPRPRPSIHPRP
shrunken log2 fold change: -0.619

RRIRARPPRLPRPRPRPPAPPRP
shrunken log2 fold change: 1.19

RRIRCRPPRLPRPRPRPWSMPRP
shrunken log2 fold change: -0.308

RRIRIRPPRLPRPRPRPMANPRP
shrunken log2 fold change: -0.104

RRIRCRPPRLPRPRPRPDMRPRP
shrunken log2 fold change: 0.018

RRIRARPPRLPRPRPRPPKRPRP
shrunken log2 fold change: 0.485

RRIRVRPPRLPRPRPRPFETPRP
shrunken log2 fold change: -0.0538

RRIRGRPPRLPRPRPRPKYMPRP
shrunken log2 fold change: 0.104

RRIRNRPPRLPRPRPRPFHQPRP
shrunken log2 fold change: 0.151

RRIRRRPPRLPRPRPRPWPLPRP
shrunken log2 fold change: 0.468

RRIRIRPPRLPRPRPRPAHRPRP
shrunken log2 fold change: -0.133

RRIRCRPPRLPRPRPRPDYHPRP
shrunken log2 fold change: -0.903

RRIRERPPRLPRPRPRPDMNPRP
shrunken log2 fold change: -0.00248

RRIRYRPPRLPRPRPRPNPTPRP
shrunken log2 fold change: 0.0161

RRIRCRPPRLPRPRPRPTHVPRP
shrunken log2 fold change: 0.437

RRIRMRPPRLPRPRPRPYNEPRP
shrunken log2 fold change: -0.811

RRIRRRPPRLPRPRPRPFNIPRP
shrunken log2 fold change: -0.491

RRIRTRPPRLPRPRPRPNNMPRP
shrunken log2 fold change: -0.346

RRIRFRPPRLPRPRPRPAYNPRP
shrunken log2 fold change: -0.486

RRIRKRPPRLPRPRPRPLIGPRP
shrunken log2 fold change: 0.28

RRIRWRPPRLPRPRPRPSCIPRP
shrunken log2 fold change: -0.261

RRIRDRPPRLPRPRPRPALMPRP
shrunken log2 fold change: 0.333

RRIRIRPPRLPRPRPRPVSFPRP
shrunken log2 fold change: 0.00232

RRIRRRPPRLPRPRPRPLSHPRP
shrunken log2 fold change: 0.0117

RRIRFRPPRLPRPRPRPESDPRP
shrunken log2 fold change: 0.17

RRIRDRPPRLPRPRPRPANTPRP
shrunken log2 fold change: -0.0443

RRIRFRPPRLPRPRPRPQQMPRP
shrunken log2 fold change: -0.0245

RRIRNRPPRLPRPRPRPRDVPRP
shrunken log2 fold change: 0.0624

RRIRERPPRLPRPRPRPRLFPRP
shrunken log2 fold change: 0.00738

RRIRGRPPRLPRPRPRPVHHPRP
shrunken log2 fold change: -0.0799

RRIRSRPPRLPRPRPRPRVKPRP
shrunken log2 fold change: -0.224

RRIRWRPPRLPRPRPRPVWVPRP
shrunken log2 fold change: 0.257

RRIRGRPPRLPRPRPRPFNPPRP
shrunken log2 fold change: -0.439

RRIRVRPPRLPRPRPRPMMEPRP
shrunken log2 fold change: 0.00705

RRIRARPPRLPRPRPRPECFPRP
shrunken log2 fold change: 0.938

RRIRVRPPRLPRPRPRPSQNPRP
shrunken log2 fold change: -0.242

RRIRFRPPRLPRPRPRPEPFPRP
shrunken log2 fold change: 0.108

RRIRCRPPRLPRPRPRPCLFPRP
shrunken log2 fold change: -0.333

RRIRSRPPRLPRPRPRPLHTPRP
shrunken log2 fold change: 0.0576

RRIRFRPPRLPRPRPRPFHGPRP
shrunken log2 fold change: 0.00193

RRIRLRPPRLPRPRPRPENKPRP
shrunken log2 fold change: -0.328

RRIRSRPPRLPRPRPRPGYDPRP
shrunken log2 fold change: -0.125

RRIRSRPPRLPRPRPRPPIPPRP
shrunken log2 fold change: 0.0379

RRIRERPPRLPRPRPRPETDPRP
shrunken log2 fold change: -0.0989

RRIRDRPPRLPRPRPRPHTCPRP
shrunken log2 fold change: -0.0522

RRIRGRPPRLPRPRPRPLTLPRP
shrunken log2 fold change: 0.275

RRIRHRPPRLPRPRPRPPRLPRP
shrunken log2 fold change: 0.0241

RRIRMRPPRLPRPRPRPTWGPRP
shrunken log2 fold change: 0.564

RRIRQRPPRLPRPRPRPYSYPRP
shrunken log2 fold change: -0.337

RRIRARPPRLPRPRPRPGSQPRP
shrunken log2 fold change: 0.368

RRIRERPPRLPRPRPRPWHCPRP
shrunken log2 fold change: -0.0723

RRIRHRPPRLPRPRPRPPRWPRP
shrunken log2 fold change: 0.137

RRIRNRPPRLPRPRPRPLNMPRP
shrunken log2 fold change: -0.636

RRIRNRPPRLPRPRPRPPLSPRP
shrunken log2 fold change: 0.502

RRIRPRPPRLPRPRPRPIVVPRP
shrunken log2 fold change: -0.134

RRIRMRPPRLPRPRPRPNHWPRP
shrunken log2 fold change: 0.14

RRIRRRPPRLPRPRPRPNPQPRP
shrunken log2 fold change: 0.631

RRIRKRPPRLPRPRPRPQSWPRP
shrunken log2 fold change: 0.451

RRIRTRPPRLPRPRPRPHTTPRP
shrunken log2 fold change: -0.166

RRIRWRPPRLPRPRPRPRAQPRP
shrunken log2 fold change: 0.56

RRIRRRPPRLPRPRPRPAFEPRP
shrunken log2 fold change: 0.54

RRIRDRPPRLPRPRPRPAQEPRP
shrunken log2 fold change: 0.185

RRIRMRPPRLPRPRPRPEVFPRP
shrunken log2 fold change: 1.35

RRIRIRPPRLPRPRPRPTKIPRP
shrunken log2 fold change: -0.158

RRIRLRPPRLPRPRPRPRTHPRP
shrunken log2 fold change: 0.189

RRIRNRPPRLPRPRPRPCCQPRP
shrunken log2 fold change: -0.6

RRIRRRPPRLPRPRPRPIFVPRP
shrunken log2 fold change: 0.0119

RRIRMRPPRLPRPRPRPFYLPRP
shrunken log2 fold change: -0.191

RRIRKRPPRLPRPRPRPGCVPRP
shrunken log2 fold change: 1.16

RRIRHRPPRLPRPRPRPQYPPRP
shrunken log2 fold change: -0.161

RRIRNRPPRLPRPRPRPGPIPRP
shrunken log2 fold change: 0.058

RRIRIRPPRLPRPRPRPRYWPRP
shrunken log2 fold change: 0.0433

RRIRWRPPRLPRPRPRPQFEPRP
shrunken log2 fold change: 1.87

RRIRCRPPRLPRPRPRPREPPRP
shrunken log2 fold change: 0.211

RRIRYRPPRLPRPRPRPGKPPRP
shrunken log2 fold change: -0.0225

RRIRCRPPRLPRPRPRPFLEPRP
shrunken log2 fold change: -0.472

RRIRHRPPRLPRPRPRPSLLPRP
shrunken log2 fold change: -0.287

RRIRPRPPRLPRPRPRPRLQPRP
shrunken log2 fold change: 0.176

RRIRGRPPRLPRPRPRPAIDPRP
shrunken log2 fold change: 0.568
